Literature values in publication PMC8758526.

Tests used:
TREM-1 (Mus musculus) = TREM-1 (Mus musculus) (UniProt Q9JKE2)
TLR4 (Mus musculus) = TLR4 (Mus musculus) (UniProt Q9QUK6)
UniProt Q9QUK6, sequence (Q9QUK6 26-835): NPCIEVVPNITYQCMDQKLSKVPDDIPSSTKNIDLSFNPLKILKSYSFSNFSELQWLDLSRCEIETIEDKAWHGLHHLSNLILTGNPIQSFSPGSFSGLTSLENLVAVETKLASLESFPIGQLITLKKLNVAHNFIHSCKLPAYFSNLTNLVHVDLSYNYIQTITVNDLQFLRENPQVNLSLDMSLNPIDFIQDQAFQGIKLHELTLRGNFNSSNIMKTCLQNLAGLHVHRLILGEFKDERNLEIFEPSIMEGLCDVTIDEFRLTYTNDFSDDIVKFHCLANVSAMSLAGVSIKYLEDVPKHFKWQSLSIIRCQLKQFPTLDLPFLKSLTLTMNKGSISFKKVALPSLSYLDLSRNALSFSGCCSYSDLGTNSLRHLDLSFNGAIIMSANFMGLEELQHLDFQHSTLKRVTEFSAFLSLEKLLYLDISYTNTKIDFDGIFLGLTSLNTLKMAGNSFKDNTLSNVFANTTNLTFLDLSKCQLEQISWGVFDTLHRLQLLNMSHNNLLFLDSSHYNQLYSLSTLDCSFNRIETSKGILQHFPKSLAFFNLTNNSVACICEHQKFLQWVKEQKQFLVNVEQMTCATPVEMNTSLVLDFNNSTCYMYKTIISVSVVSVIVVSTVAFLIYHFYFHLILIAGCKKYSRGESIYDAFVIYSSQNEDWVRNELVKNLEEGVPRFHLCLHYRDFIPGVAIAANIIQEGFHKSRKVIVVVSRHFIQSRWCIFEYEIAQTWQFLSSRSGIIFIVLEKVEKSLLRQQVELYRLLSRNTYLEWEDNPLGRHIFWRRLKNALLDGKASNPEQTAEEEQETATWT

UniProt Q9JKE2, sequence (Q9JKE2 21-230): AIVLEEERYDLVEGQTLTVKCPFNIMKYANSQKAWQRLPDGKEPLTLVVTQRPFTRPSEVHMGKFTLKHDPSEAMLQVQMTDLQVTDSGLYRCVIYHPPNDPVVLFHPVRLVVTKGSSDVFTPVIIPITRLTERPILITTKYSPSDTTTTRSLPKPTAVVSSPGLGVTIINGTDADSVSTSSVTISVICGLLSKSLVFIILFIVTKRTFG

Kd (TREM-1 (Mus musculus)): 0.117 µM
Kd (TLR4 (Mus musculus)): 0.617 µM
Substance: eCIRP (from UniProt P60824)
